Measurements: the nanobody polyreactivity screen of Harvey et al. (2022)

Assay: yeast display, Sf9 membrane polyspecificity reagent, FACS + sequencing; frameworks hold sequencing errors
Summary of the method: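 Galactose-induced (36–48 hours) yeast carrying a synthetic nanobody display library were exposed to 10% biotinylated, detergent-solubilized Sf9 membrane reagent at 4 °C for 1 hour. FACS followed streptavidin microbead enrichment, using low and high (top ~1%) gates for expression (anti-HA) and reagent binding (streptavidin). Colony PCR, MiSeq 2 × 250 sequencing and CDR-length filtering followed. Labels for polyreactivity reflect the gate of origin.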

| Sequence | polyreactivity (PSR sort gate) |
| --- | --- |
| QVQLVESGGGLVQAGGSLRLSCAASGSIFGAYAMGWYRQAPGKERELVAAISWRDGSTYYADSVKGRFTISRDNAKNTVYLQMNSLKPEDTAVYYCAAEYVYIFYDSDYWGQGTQVTVSS | high polyreactivity |
| QVQLVESGGGLVQAGGSLRLSCAASGNTFVTYTMGWYRQAPGKERELVADISSGGSTYYADSVKGRFTISRDNAKNTVYLQINSLKPEDTAVYYCAVQQAVFRSYYIYHRYYWGQGTQVTVSS | high polyreactivity |
| QVQLVESGGGLVQAGGSLRLSCAASGITFGSNAMGWYRQAPGKERELVAAINSGGTTTYADSVKGRFTISRDNAKNTVYLQMNSLKPEDTAVYYCAVSGGASYQFVGSPDTEHDYWGQGTQVTVSS | low polyreactivity |
| QGQLVESGGGLVQAGGSLRLTCAASGLTFRRYTMGSYRQAPGNERELVAPISGSGGSTYYADSVKGRFTISRDSAKNTVYFQMNSLKPEDTAVSYCNAPYLHYVIVFTDYSQRYDYWGQGTQVTVSS | high polyreactivity |
| QVQLVESGGGLVQAGGSLRLSCAASGRTFQEYAMGWYRQAPGKERELVADISDGGSTNYADSVKGRFTISRDNAKNTVYLLMKSLKPEDTAGYYCAAARPGWRVGYDYWGQGTQVTVSS | low polyreactivity |
| QVQLVESGGGLVQAGGSLRLSCAASGRTFARYAMGWYRQAPGKERELVAAINRSGGSTYYADSVKGRFTISRDNAKNTVYLQMNSLKPEDTAVYYCNARDPYTYRYSYYYWGQGTQVTVSS | high polyreactivity |
| QVQLVESGGGLVQAGGSLRVSCAASGRTFRYYDMGWYRQAPGKEREFVAAITWRGGSTYYADSVKGRFTISRDNAKNTVYLQMNSLKPEDTAVYYCAADPFDDQLQYDYWGQGTQVTVSS | low polyreactivity |
| QVQLVESGGGLVKAGGSLRISCAASGFTFVSYSKGWYRQAPGKERELVADISSGVSTNYADSVKGRFTISRDNAKNTVYLQMNSLNPEDTAVYYCAAYGTKWGRGFYITGYGYWGQGTQVTVSS | low polyreactivity |
| QVQLVESGGGLVQAGGSLRLSCAASGSTFGKNAMGWYRPAPGKERELVAAITSSGGRTYYADSVKGRFTISRDNAKNTVYLQMNSLKPEDTAVYYCNAVTRRRSLGPWPVEYDYWGQGTQVTVSS | high polyreactivity |
| QVQLVESGGGLDQARGSLRLSCAASGRTSLRYAMGWYRQAPWKERELVAAITSSGATTYYADSVKGRFTISRDNAKNTVYLQMNSLKPEDTAVYYCAAVYSAKRGSGGFGYWGQGTQVTVSS | high polyreactivity |
| QVQLVESGGGLVQAGGSLRLSCAASGLIFTYYAMGWYRQAPGKEREMVAAISSSGVNTYYADSVKGRFTISRDNAKNTVYLQMNSLKPEYTAVYYCAAELQPSPVGGIIQYGFDYWGQGTQVTVSS | low polyreactivity |
| QVQLVESGGGLVQAGGSLRLSCAASGFTFRGNAMGWYRQAPGKERELVAAITWNGGSTYYADSVKGRFTISRDNAKNTVYLQMNSLKPEDTAVYYCAAQYGKKRQPRFNYWGQGTQVTVSS | high polyreactivity |
| QVQRVESGGGLFQAGRSLRLSCAASGFIFSTYAMGWYRQAPGKERELVAAISSGGSTYYADSVKGRFTISRDNAKNTVYLQMNSLKPEDTAVDYCAADLGAYWFSYYYWGQGTQLTVSS | high polyreactivity |
| QVQLVESGGGLVQAGGSLRLSCAASGSIFGYYAMGWYRQAPGKERELVAAISSGDSTYADSVKGRFTISRDNAKNTVYLQMNSLKPEDTAVYYCAADEYYTFSSFELRRMDYWGQGTQVTVSS | low polyreactivity |
| QVQLVESGGGLFQAGGSLRLSCAATGRTIVIYAMRWYRQAPGKERELVAAISFSGDTAYYADSVKGRFTISRDNAKNTVYLQMNSLKPDHTAVYYCAAVTQPWSYYRRDYWGQGTQVTVSS | high polyreactivity |
| QVQLVESGGGLVQAGGSLRLSCAASGLTFLVYAMGWYRQAPGKERELVAAITSIGDSTFYADSVKGRFTISRDNAKNTVYLQMNSLKPEDTAVYYCNADGPAGDIKFTLLDYDYWGQGTQVTVSS | low polyreactivity |
| QVQLVESGGALVQAGGSLRLSLADSGMTFSQNAMGWYRQAPGKERELVAAISSSGTSTYYADSVKGRFTISRDNAKNTVYLQMNSLKPEDTAVYYCNAPPGTFQWQGHSDYWGQGTQVTVSS | low polyreactivity |
| QVQLVESGGGLVQAGGSLRLSCAASGYIFFGNAMGWYRQAPGKERELVAAIRRRGTSTYYADSVKGRFTISRDNAKNTVYLQMNSLKPEDTAVYYCAADVVRSNFYGTFLYDYDYCGQGTQVTVSS | low polyreactivity |
| QVQLVESGGGLVQAGGSLRLSCAASGSIFEIYDMGWYRQAPGKERELVASITWSGGSTYYADSVKGRFTISRDNAKNTVYLQMNSLKPEDTAVYYCATDKLYGRTVRMDYWGQGTQVSVSS | low polyreactivity |
| QVQIVESGGGLVQAGATLRLSCDASGITIEGYAMGWYRQAPGKERELVAAIRSSGTSTYYADSVKGRFTITRDFAKNTVYLQMNSLKPEDTAVYYCNRARSSSRYDYWGQGTQVTVSS | low polyreactivity |
| QVQLVESGGGLVQAGGSLRLSCAASGLIFSVYAMGWYRQAPGKERELVAAISWSGSTYYADSVKGRFTISRDNAKNTVYLQMNSLKPEDTAVDYCAAEYDYDHFYWMDYWGQGTQVTVSS | high polyreactivity |
| QVQLVESGGGLLQAGGSLRLSCAASVRIFYGYAMGWYRQAPGKERELVAAIDSVGDKYYADSVKGRFTISRDNAKNTVYLQMNSLNPEDTAVYSCAADRTGRIVLSPTDEMDYWGQGTQVSVSS | low polyreactivity |

| Sequence | polyreactivity (PSR sort gate) |
| --- | --- |
| QVQLVESGGGLVQAGGSLRLSCAASGRIFASYAMGWYRQAPGKERELVAAISLSGGSTYYADSVKGRFTISRDIAKNTVYLQMNSLKPEDTAVYYCAAKNYRRYRDYYWGQGTQVTVSS | high polyreactivity |
| QVQLEESGGGLVQAGGSLRLSCAASGRIRYYAMGWYRQAPGKERELVAAISSTGGSTYYADSVKGRFTISRDNAKNTVYFQMNSLKPEDTAVYYCNVAWIWGKYEYWGQGTQVTVSS | high polyreactivity |
| QVQLVESGGGLVQAGGSLRLSCAASGRIFRAYAMGWYRQAPGKERELVASITGSGGSTYYADSVKGRFTISRDNAKNTVYFQMNILKPEDTAVYYCAVASYRVWGVGTRYYYWGQGTHVTVSS | high polyreactivity |
| QVQLVESGGGLVQAGGSLRLSCAASGSIYWNTMGWYRQAPGKERELVAGISSSGDSTYYADSVKGRFTISRDNAKNTVYLQMNSLKPEDTAVYYCAARTRRFRYYYWGQGTQVTVSS | high polyreactivity |
| QVQLVESEGGLVQAGGSLRISCAASGRNFRTYDMGWYRQAPGKERELVAAISEEGGYTYYADSVKGRFTISRDNAKNTVYLQMNSLKPEDTAVYYCAKDRPGPLRWWFLYGYWGQGTQVTVSS | low polyreactivity |
| QVQLVESGGGLVQEGGSLRLICAASGSTFAANTMGWYRQEPGKERELVAAITDRGGSTYYADSVKGRFTISRDNAKNTVYLQMITLKPEDTAVYYSAAERPPYGYLVVGYVSTQYYYWGQGTQVTVSS | low polyreactivity |
| QVQLVESAAGLVQAGASLRLSCAPSGSIFSGNALGWSRQAPGKARELVAAISQNGGRTYYADSVKGRFTISRDYAKNTVYLQMNILKPDDTAVYYCAALAVRFYSSYDYWGQGTQVTVSS | high polyreactivity |
| QVQLVESGGGLDQAGGSLRLSCAASGSTFSRNAMGWYRQAPGKERELVAGISYIGGRTYYADSVKGRFTISRDNAKNTVYLQMNSLKPEDTAVYYCNVVPKSRDWQSYGSWGQGTQVTVSS | high polyreactivity |
| QVQLVESGGGLVQAGGSLRLSCAASGRTFPVYAMGWYRQAPGKEREFVAAISRRGGSTYYADSVKGRFTISRDNAKNTVYLQMNSLKPQDTAVYYCAKVYYLYGAQHNPGRYDYWGQGTQLTVSS | high polyreactivity |
| QVQLVESGGGLVQAGGSLRLSCAASGITFYGYAMGWYRQAPGKERELVAAISGNGGRTYYADSVKGRFTISRDNAKNTVYLQMNSLKPEDTAVYYCNVKVRSRRTGDRYDYWGQGTQVTVSS | high polyreactivity |
| QVQLVESGGGLVQAGGSLRLSCAASGSTFYSNAMGCYRQAPGKEREFVAAITGGDVRTYYADSVKGRFTISRDNAKNTVYLPMNSLKPEDTAVYFCATGPYIWPEWSPGFDYWGQGTQVTVSS | low polyreactivity |
| QVQLVESGGGLVQAGGSLRLSCAASGRTSEFNAMGWYRQAPGKERELVAAITDGGNTNYADSVKGRFTISRDNAKNTVYLQMNSLKPEDTAVYYCAAERYTWWGFDYDYWGQGTQVTVSS | high polyreactivity |
| QVQLVESGGGLVQAGGSLRLTSAASGITFYGYAMGWYRQAPGKETELVAAISRSGSSTYYADSVKGRFTISRYNAKNTVYLQMNSLKPEVTAVYYCAARAWAQWGDYWGQGTQLTVSS | high polyreactivity |
| QVQLVESGGGLVQAGGSLRLSCAASGRTSTQNAMGWYRQAPGKERELVAAITTGGGSTYYADSVKGRFTISRDNAKNTVYLQMNSLKPEDTAVYYCAARTPQRSEWTKYGYWGQGTQVTVSS | low polyreactivity |
| QVQLVESGGGLVQAGGSLHLSCAASGFTFDGYTMGWYRQAPGKERELVATITTGGSTYYADSVKGRFTISRDNAKNTVYLQMNSLKPEDTAVYYCAADYRGVPYIKWPKDFEYWGQGTQVTVSS | low polyreactivity |
| QVQLVESGGGLVQAGGSLRLSCAASGSTFQVYAMGWYRQAPGKERELVAAISNGGRTNYADSVKGRFTISRDNAKNTVYLQMNSLKPEDTAVYYCNADQVWWSFDRVLVGYEYWGQGTQVTVSS | low polyreactivity |
| QVQLVESGGGLVQAGGSLRLSCAASGFIFSQNTMGWYRQAPGKERELVAAISKSGGTTYYADSVKGRFTISRDNAKNTVYLQMNSLKPEDTAVYYCARDKGYVSYRYNYWGQGTQVTVSS | high polyreactivity |
| QVQLVESGGGLVQAGGSLRLSCAASGRIFYLYAMGWYRQAPGKERELVAAITGGGSTSYADSVKGRFTISRDNAKNTVYLQMNSLKPEDTAVYYCATDRLTYTKYGYWGQGTQVTVSS | low polyreactivity |
| QVQLVESGGGLVQAGGSLRLSCAASGSIFRKYAMGWYRQAPGKEREFVAAISRSGGGTYYADSVKGRFTISRDNAKNTVYLQMNSLKPEDTAVYYCAAEFRTGLQGEHYYWGQGTQVTVSS | low polyreactivity |
| QVQLVESGGGLVQAGGSLRLSCAASGRIFSYYAMGWYRKAPGKERELVAAITSAGGTNYAVSVKGRFTISRDNAKITVYLQMNSLKPEDTAVYYCAADSSVLQNYYRYRYPYVTYNYWGQGTQVTVSS | low polyreactivity |
| QVQLVESGGGLVQAGGSLRLSCAASGRIFYLYAMGWYRQAHGKERELVATINTSGGITYYADSVKGRFTISLDNAKNTVYLQLNSLIPEDTAVYYCNADWEWQYFYFRPGGYWGQGTQETVSS | low polyreactivity |
